Test results reported in PMC3903306 (Biochemistry, 2012).

Target: the molecule itself
Assay: cross-linking

B1: IpgC (natural protein)
chain: MSLNITENESISTAVIDAINSGATLKDINAIPDDMMDDIYSYAYDFYNKGRIEEAEVFFRFLCIYDFYNVDYIMGLAAIYQIKEQFQQAADLYAVAFALGKNDYTPVFHTGQCQLRLKAPLKAKECFELVIQHSNDEKLKIKAQSYLDAIQDIKE
B1 was tested, and the “stoichiometry N” value was 2.
